Data taken from article PMC9288159, “Identification of a guanine-specific pocket in the protein N of SARS-CoV-2”.

Target: SARS-CoV-2 N protein C-terminal domain (NCTD) (SARS-CoV-2, UniProt P0DTC9 256-364)
Experiment: EMSA; […]; binding buffer not stated ([…]
Settings: protein: recombinant; tags: N-terminal His6-TEV site (pET28a); chain copies: 2; label: 5' IRDye-800CW

Binder: CGGUUUCGCCG (ssRNA) [Oligo-G (SL5a apical region)]
- Kd: 32 ± 5 nM
